# Source: patent US7479478B2, “Human parathyroid hormone modifications, preparation and use” (The General Hospital Corporation, priority 1998, dated 2009)
# No end group written: not given here.
# Legend:
# human PTH-1 receptors = target: T1, human PTH-1 receptors (Homo sapiens, UniProt Q03431); experiment: AC activation in cells that express fewer human PTH-1 receptors (LLC-PK1 subclones, SaOS-2); assay type: cell-based; conditions: LLC-PKI or SaOS-2 osteosarcoma cells, 10,000-100,000 receptors per cell; data not shown
# T1 construct: expressed in transfected cells
# T1 sequence (Q03431 27-593): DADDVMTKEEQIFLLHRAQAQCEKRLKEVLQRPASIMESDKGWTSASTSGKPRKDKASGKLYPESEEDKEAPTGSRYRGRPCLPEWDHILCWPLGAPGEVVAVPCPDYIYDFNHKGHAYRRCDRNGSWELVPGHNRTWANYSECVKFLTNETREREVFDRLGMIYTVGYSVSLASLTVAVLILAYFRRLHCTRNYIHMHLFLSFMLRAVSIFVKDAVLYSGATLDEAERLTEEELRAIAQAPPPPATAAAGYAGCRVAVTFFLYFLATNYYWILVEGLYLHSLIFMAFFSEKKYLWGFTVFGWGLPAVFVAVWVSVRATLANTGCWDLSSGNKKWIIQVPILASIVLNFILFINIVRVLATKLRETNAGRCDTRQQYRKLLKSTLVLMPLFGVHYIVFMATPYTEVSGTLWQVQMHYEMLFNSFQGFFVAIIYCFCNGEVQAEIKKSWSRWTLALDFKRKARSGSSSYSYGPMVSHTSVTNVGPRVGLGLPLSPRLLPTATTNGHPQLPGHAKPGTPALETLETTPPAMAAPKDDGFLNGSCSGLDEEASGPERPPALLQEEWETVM
# Experimental: Intracellular cAMP accumulation, PLC activation and PTHR binding affinity were measured as previously reported (Bringhurst, F. R., et al., Endocrinology 132(5):2090-2098 (1993); Guo, J., et al., Endocrinology 136(9):3884-3891 (1995)). Intracellular cAMP accumulation was measured in extracts of cells that were exposed to human PTH peptides in the presence of isobutylmethyxanthine (IBMX, 1 mM) at 37° C. for 15 min. After terminating the reactions by aspiration and freezing in liquid nitrogen, cell monolayers were extracted with 50 mM HCl and cAMP was measured using a radioimmunoassay kit (Dupont-New England Nuclear, Boston, Mass.).
# The possibility that the [Gly^1,Arg^19]hPTH-(1-28) peptide might be useful, especially in rodent models, as a signal-selective analog to dissociate AC from PLC signaling via the PTH-1 receptor was examined further using the EW5 subclone of LLC-PK1 cells that stably expresses rat PTH-1 receptors (Guo, J., et al., Endocrinology 136(9):3884-3891 (1995)). […]
# rat PTH-1 receptors = target: T2, rat PTH-1 receptors (Rattus norvegicus, UniProt P25961); experiment: Radioligand binding in EW5 cells; conditions: compared with human PTH-1 receptor
# T2 construct: expressed in transfected cells
# T2 sequence (P25961 27-591): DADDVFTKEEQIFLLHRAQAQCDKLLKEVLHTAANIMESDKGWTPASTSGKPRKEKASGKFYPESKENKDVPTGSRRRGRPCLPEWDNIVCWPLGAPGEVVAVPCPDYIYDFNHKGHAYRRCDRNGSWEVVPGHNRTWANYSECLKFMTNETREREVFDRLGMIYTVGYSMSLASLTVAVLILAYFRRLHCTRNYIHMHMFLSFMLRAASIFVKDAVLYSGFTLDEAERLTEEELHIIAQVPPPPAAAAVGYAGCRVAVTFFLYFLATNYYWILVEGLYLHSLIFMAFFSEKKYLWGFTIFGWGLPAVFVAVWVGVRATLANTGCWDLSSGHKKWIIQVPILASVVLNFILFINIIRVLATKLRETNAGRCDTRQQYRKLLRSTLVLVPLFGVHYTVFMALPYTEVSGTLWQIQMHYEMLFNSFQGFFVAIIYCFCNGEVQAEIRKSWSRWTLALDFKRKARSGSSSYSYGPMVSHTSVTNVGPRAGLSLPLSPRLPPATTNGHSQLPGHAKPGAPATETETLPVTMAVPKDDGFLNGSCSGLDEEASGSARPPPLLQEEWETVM
# Experimental: HKRK B7 or EW5 cells (32), subclones of LLC-PKI renal epithelial cells that stably express human or rat PTH-1 receptors (950,000 and 320,000 receptors/cell, respectively), were maintained under 5% CO2 in air in Dulbecco's modified essential medium containing 7% fetal bovine serum (FBS) and 1% penicillin/streptomycin (GIBCO-BRL, Grand Island, N.Y.). HEK-293 and COS-7 cells were cultured similarly, except that 10% FBS was used in the medium. Cells were seeded into 24-well plates two days before assay at a density of 2-2.5×10^5 cells/well (HKRK B7 or EW 5 cells) or 6×10^5 cells/well (in 6-well plates) (HEK-293 cells). In experiments involving HEK-293 cells, DNA transfections were performed 24 hr after plating and inositol radiolabel was added 24 hr thereafter (see below). COS-7 cell transfections were performed as previously described (Gardella, T. J., et al., Endocrinology 132(5):2024-2030 (1993))
# Radioligand competition binding assays were performed at 2-8° C. for 6 hr using ^125I-[Nle^8,21, Tyr^34]rat PTH-(1-34) (100,000 cpm/well) in the presence or absence of non-radioactive hPTH-(1-34) analogs. Cell layers were washed three times before solubilization for determination of cell-associated radioactivity. […]
Substance,fold reduction of AC activation relative to hPTH-(1-34) (human PTH-1 receptors),"binding affinity for rat PTH-1 receptor, result in words (rat PTH-1 receptors)"
"GVSEIQLMHNLGKHLNSMRRVEWLRKKL [[Gly^1,Arg^19]hPTH-(1-28)]",10-20 fold,–
SVSEIQLMHNLGKHLNSMERVEWLRKKL-NH2 [hPTH-(1-28)],–,comparable
